Data on one protein can be found in paper PMC4344528, “Structural role of the flanking DNA in mariner transposon excision” (Nucleic Acids Research, 2015).

The term stoichiometry N denotes a count of units in the complex or per binding partner.

This series concerns the molecule itself. The series is described as follows: crystal structure; pre-TS cleavage Mos1 paired-end complex: T216A/D249A transposase mixed equimolar with ds IR DNA substrate; hanging-drop vapour diffusion, 100 mM ammonium acetate, 20 mM MgCl2, 50 mM HEPES pH 7.0, 5% PEG 8000; 3.09 Å, C222(1).

B1: T216A/D249A Mos1 transposase double mutant (enzyme)
chain: MSSFVPNKEQTRTVLIFCFHLKKTAAESHRMLVEAFGEQVPTVKKCERWFQRFKSGDFDVDDKEHGKPPKRYEDAELQALLDEDDAQTQKQLAEQLEVSQQAVSNRLREMGKIQKVGRWVPHELNERQMERRKNTCEILLSRYKRKSFLHRIVTGDEKWIFFVSPKRKKSYVDPGQPATSTARPNRFGKKTMLCVWWDQSGVIYYELLKRGETVNAARYQQQLINLNRALQRKRPEYQKRQHRVIFLHANAPSHTARAVRDTLETLNWEVLPHAAYSPDLAPSDYHLFASMGHALAEQRFDSYESVKKWLDEWFAAKDDEFYWRGIHKLPERWEKCVASDGKY
notes: mariner Mos1 transposase, from the codon-optimized Mos1 gene; T216A allows soluble expression in E. coli, D249A is the active site mutation; Crystallised as a paired-end complex (PEC): a transposase dimer with two DNA substrates (33 nt transferred strand, 25 nt non-transferred strand); PDB 3HOS is the post-cleavage PEC of the parent transposase, without D249A; also called T216A/D249A mutant …
As to B1, the “stoichiometry N” value is 2.
